Laboratory results reported in paper PMC4535357.

Target: T1, SRSF2 (UniProt Q01130 1-221)
T1 sequence: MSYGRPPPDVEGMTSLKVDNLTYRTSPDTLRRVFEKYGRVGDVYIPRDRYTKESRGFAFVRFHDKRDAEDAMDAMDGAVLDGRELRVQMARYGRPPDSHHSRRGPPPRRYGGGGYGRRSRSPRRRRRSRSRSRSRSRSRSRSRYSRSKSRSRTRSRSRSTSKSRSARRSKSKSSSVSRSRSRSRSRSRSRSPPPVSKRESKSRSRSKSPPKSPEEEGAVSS
Assay: EMSA

GCACGUAUUC (ssRNA) [Mut-SRSF2 RNA (CGUA)]: no binding.
